Earlier results as cited in PMC8405992.
Read-outs that look alike come from different tables or passages of the source. Each block holds one substance with its values, some of them ahead of it.

Legend:
[1] = target: Ubp6 UBL (Saccharomyces cerevisiae) (UniProt P43593)
[2] = target: Dsk2 UBL (Saccharomyces cerevisiae) (UniProt P48510)
[3] = target: Dsk2 UBL (Saccharomyces cerevisiae) (UniProt P48510); remark: listed apart in the source
[4] = target: Ubp6 UBL (Saccharomyces cerevisiae) (UniProt P43593); remark: listed apart in the source
[5] = target: Rad23-UBL UBL (Saccharomyces cerevisiae) (UniProt P32628)
Chain of Rad23-UBL UBL (Saccharomyces cerevisiae) (P32628 1-77): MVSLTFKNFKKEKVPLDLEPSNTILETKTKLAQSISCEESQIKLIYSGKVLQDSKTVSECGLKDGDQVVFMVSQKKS

[6] = target: Rad23 UBL (Saccharomyces cerevisiae) (UniProt P32628)
Chain of Rad23 UBL (Saccharomyces cerevisiae) (P32628 1-77): as above

Chain of Rpn1 (P38764 2-993): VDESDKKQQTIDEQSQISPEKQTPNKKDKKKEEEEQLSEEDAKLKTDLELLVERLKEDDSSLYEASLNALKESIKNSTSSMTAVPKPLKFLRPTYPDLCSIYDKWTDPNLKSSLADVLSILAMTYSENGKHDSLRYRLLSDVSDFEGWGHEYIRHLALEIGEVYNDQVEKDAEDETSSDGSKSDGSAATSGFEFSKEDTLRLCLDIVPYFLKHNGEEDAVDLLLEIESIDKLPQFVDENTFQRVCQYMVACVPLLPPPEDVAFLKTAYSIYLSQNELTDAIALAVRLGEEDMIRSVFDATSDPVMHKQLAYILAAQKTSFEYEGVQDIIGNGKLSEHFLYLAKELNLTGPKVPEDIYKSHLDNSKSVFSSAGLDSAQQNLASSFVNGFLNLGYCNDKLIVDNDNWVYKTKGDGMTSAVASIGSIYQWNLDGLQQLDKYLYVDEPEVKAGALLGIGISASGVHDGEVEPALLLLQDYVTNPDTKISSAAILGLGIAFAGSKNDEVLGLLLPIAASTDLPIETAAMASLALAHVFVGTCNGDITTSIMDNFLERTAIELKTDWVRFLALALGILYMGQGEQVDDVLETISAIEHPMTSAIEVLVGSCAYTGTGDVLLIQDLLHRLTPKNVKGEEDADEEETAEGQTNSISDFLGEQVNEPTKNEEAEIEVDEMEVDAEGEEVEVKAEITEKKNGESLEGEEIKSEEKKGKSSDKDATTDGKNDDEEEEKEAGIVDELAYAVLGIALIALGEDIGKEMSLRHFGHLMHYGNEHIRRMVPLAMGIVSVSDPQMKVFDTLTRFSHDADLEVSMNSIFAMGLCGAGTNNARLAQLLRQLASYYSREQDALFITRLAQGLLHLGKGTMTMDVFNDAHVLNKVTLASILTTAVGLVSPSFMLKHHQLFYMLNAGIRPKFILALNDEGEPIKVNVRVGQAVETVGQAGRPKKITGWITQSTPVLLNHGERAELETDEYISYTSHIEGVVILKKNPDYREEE
Chain of Rpn1 391-642 (P38764 391-642): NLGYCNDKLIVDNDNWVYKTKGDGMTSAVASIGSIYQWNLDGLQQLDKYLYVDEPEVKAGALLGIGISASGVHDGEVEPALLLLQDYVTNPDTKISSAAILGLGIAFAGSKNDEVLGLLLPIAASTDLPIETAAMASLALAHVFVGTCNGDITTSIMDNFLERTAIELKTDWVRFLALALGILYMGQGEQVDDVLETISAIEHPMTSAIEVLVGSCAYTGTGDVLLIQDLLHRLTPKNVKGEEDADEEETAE
Chain of Dsk2 UBL (Saccharomyces cerevisiae) (P48510 1-76): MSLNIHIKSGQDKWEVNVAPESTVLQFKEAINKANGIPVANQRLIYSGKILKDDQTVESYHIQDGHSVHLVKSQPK
Chain of Ubp6 UBL (Saccharomyces cerevisiae) (P43593 6-80): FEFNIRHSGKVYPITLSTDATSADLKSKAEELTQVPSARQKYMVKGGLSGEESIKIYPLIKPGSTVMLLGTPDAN

Substance: Rpn1 391-642 (from UniProt P38764)
Kd [1]: 40 µM
Kd [2]: 22 µM

Kd [3]: 12 µM
Kd [4]: 2 µM
Substance: Rpn1 (from UniProt P38764)

Kd [5]: 0.064 µM
Kd [6]: 0.064 µM
Substance: Rpn1 T1 site (from UniProt P38764)
